We go through two molecules from publication PMC8888484, “Ubr1-induced selective endophagy/autophagy protects against the endosomal and Ca^2+-induced proteostasis disease stress” (Cellular and Molecular Life Sciences: CMLS, 2022).

Experiment [1] addresses mutants (MLC1 mutants of Fig. 3A). Briefly: co-IP; cell surface immunoprecipitation (cs-IP): anti-GlialCAM Ab bound to live HeLa cells 45 min on ice, unbound Ab washed off, lysis (0.4% NP-40 in co-IP assays), MLC1/GlialCAM complex precipitated, Western blot; signals normalised to precipitated MLC1; for Fig. 7G cells with siUbr1 or siNT and Flag-Ubr1-wt or -CI. (In general: In western blotting, separated proteins are transferred to a membrane and probed.)

A further experiment concerns the target T1, HA-MLC1-S280L-Bir* (human (by the printed GeneID 23209; the …, UniProt Q15049 1-377, S280L).
T1 construct: MLC1, GeneID 23209, disease-causing variant S280L, as a chimera with Bir*; also called SL-b
T1 sequence (looked up): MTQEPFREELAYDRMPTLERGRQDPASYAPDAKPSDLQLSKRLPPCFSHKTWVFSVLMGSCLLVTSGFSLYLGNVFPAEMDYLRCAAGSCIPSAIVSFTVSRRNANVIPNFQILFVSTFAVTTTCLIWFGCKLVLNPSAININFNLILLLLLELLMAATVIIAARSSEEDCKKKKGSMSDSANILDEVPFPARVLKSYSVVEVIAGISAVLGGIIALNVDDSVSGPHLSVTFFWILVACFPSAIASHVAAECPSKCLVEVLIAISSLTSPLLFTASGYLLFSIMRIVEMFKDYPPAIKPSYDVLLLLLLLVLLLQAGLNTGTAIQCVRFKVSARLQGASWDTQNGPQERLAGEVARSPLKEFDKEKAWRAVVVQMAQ
Briefly: proximity labelling; proximity biotinylation with MLC1-Bir* chimera as bait, 50 µM biotin, cs-IP with anti-GlialCAM Ab, biotinylated proteins recovered on streptavidin/neutravidin beads, Western blot for Ubr1; normalised for the PM amount of MLC1. The following applies: partners not purified.

The molecule “CHIP (C-terminus of Hsc70-interacting protein) (from UniProt Q9UNE7 1-303)” came in with a fold association against MLC1-wt in experiment [1] of 2 to 5 fold.

B1: endogenous Ubr1 (enzyme, UniProt Q8IWV7 1-1749, looked up)
chain: MADEEAGGTERMEISAELPQTPQRLASWWDQQVDFYTAFLHHLAQLVPEIYFAEMDPDLEKQEESVQMSIFTPLEWYLFGEDPDICLEKLKHSGAFQLCGRVFKSGETTYSCRDCAIDPTCVLCMDCFQDSVHKNHRYKMHTSTGGGFCDCGDTEAWKTGPFCVNHEPGRAGTIKENSRCPLNEEVIVQARKIFPSVIKYVVEMTIWEEEKELPPELQIREKNERYYCVLFNDEHHSYDHVIYSLQRALDCELAEAQLHTTAIDKEGRRAVKAGAYAACQEAKEDIKSHSENVSQHPLHVEVLHSEIMAHQKFALRLGSWMNKIMSYSSDFRQIFCQACLREEPDSENPCLISRLMLWDAKLYKGARKILHELIFSSFFMEMEYKKLFAMEFVKYYKQLQKEYISDDHDRSISITALSVQMFTVPTLARHLIEEQNVISVITETLLEVLPEYLDRNNKFNFQGYSQDKLGRVYAVICDLKYILISKPTIWTERLRMQFLEGFRSFLKILTCMQGMEEIRRQVGQHIEVDPDWEAAIAIQMQLKNILLMFQEWCACDEELLLVAYKECHKAVMRCSTSFISSSKTVVQSCGHSLETKSYRVSEDLVSIHLPLSRTLAGLHVRLSRLGAVSRLHEFVSFEDFQVEVLVEYPLRCLVLVAQVVAEMWRRNGLSLISQVFYYQDVKCREEMYDKDIIMLQIGASLMDPNKFLLLVLQRYELAEAFNKTISTKDQDLIKQYNTLIEEMLQVLIYIVGERYVPGVGNVTKEEVTMREIIHLLCIEPMPHSAIAKNLPENENNETGLENVINKVATFKKPGVSGHGVYELKDESLKDFNMYFYHYSKTQHSKAEHMQKKRRKQENKDEALPPPPPPEFCPAFSKVINLLNCDIMMYILRTVFERAIDTDSNLWTEGMLQMAFHILALGLLEEKQQLQKAPEEEVTFDFYHKASRLGSSAMNIQMLLEKLKGIPQLEGQKDMITWILQMFDTVKRLREKSCLIVATTSGSESIKNDEITHDKEKAERKRKAEAARLHRQKIMAQMSALQKNFIETHKLMYDNTSEMPGKEDSIMEEESTPAVSDYSRIALGPKRGPSVTEKEVLTCILCQEEQEVKIENNAMVLSACVQKSTALTQHRGKPIELSGEALDPLFMDPDLAYGTYTGSCGHVMHAVCWQKYFEAVQLSSQQRIHVDLFDLESGEYLCPLCKSLCNTVIPIIPLQPQKINSENADALAQLLTLARWIQTVLARISGYNIRHAKGENPIPIFFNQGMGDSTLEFHSILSFGVESSIKYSNSIKEMVILFATTIYRIGLKVPPDERDPRVPMLTWSTCAFTIQAIENLLGDEGKPLFGALQNRQHNGLKALMQFAVAQRITCPQVLIQKHLVRLLSVVLPNIKSEDTPCLLSIDLFHVLVGAVLAFPSLYWDDPVDLQPSSVSSSYNHLYLFHLITMAHMLQILLTVDTGLPLAQVQEDSEEAHSASSFFAEISQYTSGSIGCDIPGWYLWVSLKNGITPYLRCAALFFHYLLGVTPPEELHTNSAEGEYSALCSYLSLPTNLFLLFQEYWDTVRPLLQRWCADPALLNCLKQKNTVVRYPRKRNSLIELPDDYSCLLNQASHFRCPRSADDERKHPVLCLFCGAILCSQNICCQEIVNGEEVGACIFHALHCGAGVCIFLKIRECRVVLVEGKARGCAYPAPYLDEYGETDPGLKRGNPLHLSRERYRKLHLVWQQHCIIEEIARSQETNQMLFGFNWQLL
modifications: biotinylated in cells by MLC1-Bir*
notes: Ubr1, endogenous, detected with anti-Ubr1 (Abcam)
B1: in the experiment with HA-MLC1-S280L-Bir*, the “fold biotinylation against MLC1-wt” value was roughly 8 fold.
